From PMC10465003, “The AAA-ATPase Yta4/ATAD1 interacts with the mitochondrial divisome to inhibit mitochondrial fission” (PLOS Biology, 2023)
One block for each molecule: values may come before it.

B2: Dnm1 (enzyme, Schizosaccharomyces pombe, UniProt Q09748 1-781, looked up)
chain: MEQLIPLVNQLQDLVYNTIGSDFLDLPSIVVVGSQSCGKSSVLENIVGKDFLPRGTGIVTRRPLILQLINLKRKTKNNHDEESTSDNNSEETSAAGETGSLEGIEEDSDEIEDYAEFLHIPDTKFTDMNKVRAEIENETLRVAGANKGINKLPINLKIYSTRVLNLTLIDLPGLTKIPVGDQPTDIEAQTRSLIMEYISRPNSIILAVSPANFDIVNSEGLKLARSVDPKGKRTIGVLTKLDLMDQGTNAMDILSGRVYPLKLGFVATVNRSQSDIVSHKSMRDALQSERSFFEHHPAYRTIKDRCGTPYLAKTLSNLLVSHIRERLPDIKARLSTLISQTQQQLNNYGDFKLSDQSQRGIILLQAMNRFANTFIASIDGNSSNIPTKELSGGARLYSIFNNVFTTALNSIDPLQNLSTVDIRTAILNSTGSRATLFLSEMAFDILVKPQLNLLAAPCHQCVELVYEELMKICHYSGDSDISHFPKLQTALVETVSDLLRENLTPTYSFVESLIAIQSAYINTNHPDFLGVQGAMAVVLSRKEQNRLMLSQENDEPISSALDTVKPDGIELYSSDPDTSVKSITNKATNEITTLKSDDSAKMQPLDVLASKRYNNAFSTETAERKTFLSYVFGANNATRKAMSIDKSSSYPLNDSLSGGDTNHKNNHPLKMTDLSNEVETMALEDMSEREEVEVDLIKELITSYFNLTRKIIIDQVPKVIMHLLVNASKDAIQNRLVSKLYREDFFDTLLIEDENVKSEREKCERLLSVYNQANKIISTVF
notes: Dnm1, fission yeast dynamin-related GTPase; also called Dnm1(WT); recombinant Dnm1; source: E. coli Rosseta, purified (Ni-NTA, sumo protease, size-exclusion chromatography); not shown: His-sumo, N-terminal, cleaved

What was measured:
Dnm1 [1] = target: B2
[2] = target: GST-Mdv1(319–651) (Schizosaccharomyces pombe) (UniProt Q9P7I3); assay: pull-down; competitive binding: GST-Mdv1(a.a. 319–651) on glutathione resins incubated with Dnm1 or Dnm1(G380D), with or without His-Yta4(a.a 33–355); band intensities quantified
[3] = target: Hcp1-Yta4(a.a. 35–355) (not stated | Schizosaccharomyces pombe); assay: SEC + cross-linking; Superdex 200 Increase 10/300 GL in hypersaline buffer (500 mM NaCl, 500 mM KCl, 1 mM ATP, pH 7.5); EGS 4 mM, 300 ng/μL protein, 30 min at room temperature, SDS-PAGE with silver staining
[4] = target: Hcp1-Msp1(a.a. 36–362) (not stated | budding yeast (Saccharomyces cerevisiae)) (UniProt P28737); assay: as above
GST-Mdv1(a.a. 1–249) [5] = target: T1, GST-Mdv1(a.a. 1–249) (Schizosaccharomyces pombe, UniProt Q9P7I3 1-249); assay: pull-down; competitive binding: GST-Mdv1(a.a. 1–249) on glutathione resins incubated with His-Fis1(a.a. 1–128), with or without His-Yta4(a.a 33–355) (Mdv1 to Yta4 1:1, 1:5, 1:10); settings: both partners purified
T1 construct: Mdv1, S. pombe, residues 1-249, the N-terminus; also called GST-Mdv1(NT); not shown: GST, N-terminal, kept
T1 sequence (looked up): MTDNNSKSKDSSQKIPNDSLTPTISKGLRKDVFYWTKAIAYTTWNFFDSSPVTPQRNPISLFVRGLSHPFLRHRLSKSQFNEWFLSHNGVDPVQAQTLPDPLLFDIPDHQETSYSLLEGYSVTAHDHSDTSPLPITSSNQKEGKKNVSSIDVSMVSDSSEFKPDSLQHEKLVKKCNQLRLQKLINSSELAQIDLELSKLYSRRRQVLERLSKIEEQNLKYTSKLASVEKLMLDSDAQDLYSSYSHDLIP

GST-Mdv1(a.a. 1–249) [6] = target: T2, GST-Mdv1(a.a. 1–249) (Schizosaccharomyces pombe (strain 972 / …, UniProt Q9P7I3)); assay: GST pull-down
T2 chain: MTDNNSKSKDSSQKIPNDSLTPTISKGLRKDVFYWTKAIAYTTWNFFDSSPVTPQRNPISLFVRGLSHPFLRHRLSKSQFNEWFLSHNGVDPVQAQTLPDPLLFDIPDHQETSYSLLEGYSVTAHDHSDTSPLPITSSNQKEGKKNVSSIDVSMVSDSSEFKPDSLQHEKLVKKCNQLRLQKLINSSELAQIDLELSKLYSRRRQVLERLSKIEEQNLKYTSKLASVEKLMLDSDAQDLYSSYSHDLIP

[7] = substrate: Nc1nc2c(ncn2[C@@H]2O[C@H](COP(=O)(O)OP(=O)(O)OP(=O)(O)O)[C@@H](O)[C@H]2O)c(=O)[nH]1; assay: malachite green phosphate release, Michaelis-Menten fit; format: biochemical, Schizosaccharomyces pombe; settings: pH 7.5, 37°C
[8] = target: the molecule itself; assay: co-sedimentation; velocity sedimentation: 2 μM Dnm1 with 0, 5, 50 or 100 μM GMP-PCP, with or without 40 μM His-Yta4; 20 min at 37°C, 10,000 g 15 min at 4°C; supernatant and pellet on SDS-PAGE
Dnm1 [9] = target: B2; assay: pull-down; competitive binding: GST-Mdv1(a.a. 319–651) on glutathione resins incubated with Dnm1 or Dnm1(G380D), with or without His-Yta4(a.a 33–355); band intensities quantified; settings: both partners purified
Dnm1(G380D) = target: T3, Dnm1(G380D) (Schizosaccharomyces pombe, UniProt Q09748 1-781, G380D); assay: as above; settings: both partners purified
T3 construct: Dnm1, fission yeast dynamin-related GTPase, with G380D (corresponds to G385D of S. cerevisiae Dnm1); Removal of His-sumo is stated for His-sumo-Dnm1 only; also called assembly-defective mutant of Dnm1; source: E. coli Rosseta, expressed as His-sumo-Dnm1(G380D), purified (Ni-NTA)
T3 sequence (looked up): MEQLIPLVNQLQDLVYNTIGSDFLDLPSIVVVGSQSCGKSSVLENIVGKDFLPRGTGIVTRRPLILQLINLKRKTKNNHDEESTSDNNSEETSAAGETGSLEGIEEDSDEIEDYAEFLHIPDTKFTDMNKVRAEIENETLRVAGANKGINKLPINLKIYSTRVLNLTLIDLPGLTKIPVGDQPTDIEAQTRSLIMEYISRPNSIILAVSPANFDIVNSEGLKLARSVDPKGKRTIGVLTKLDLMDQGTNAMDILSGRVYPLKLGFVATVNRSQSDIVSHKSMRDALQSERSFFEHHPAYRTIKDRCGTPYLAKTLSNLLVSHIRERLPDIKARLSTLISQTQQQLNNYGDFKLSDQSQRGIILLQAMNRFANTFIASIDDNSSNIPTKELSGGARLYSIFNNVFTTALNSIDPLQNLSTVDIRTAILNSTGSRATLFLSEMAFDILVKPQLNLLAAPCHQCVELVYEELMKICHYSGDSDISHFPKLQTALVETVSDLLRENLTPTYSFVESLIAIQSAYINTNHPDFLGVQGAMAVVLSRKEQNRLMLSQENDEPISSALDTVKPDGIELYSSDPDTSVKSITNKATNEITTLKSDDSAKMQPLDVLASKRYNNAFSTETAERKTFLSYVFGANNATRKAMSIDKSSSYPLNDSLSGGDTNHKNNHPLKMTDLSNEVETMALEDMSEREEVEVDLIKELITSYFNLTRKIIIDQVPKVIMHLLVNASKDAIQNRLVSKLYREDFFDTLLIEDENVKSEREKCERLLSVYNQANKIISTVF

- Km for GTP of the GTPase activity of 0.5 μM Dnm1 (colorimetric assay, 37°C) with 5 μM and 10 μM His-Yta4(∆TM), fold increase over Dnm1 alone; Vmax not significantly affected (Dnm1 [1]): 6 fold
- Dnm1 left on GST-Mdv1(WD) with His-Yta4(∆TM), percent of the level without it [2]: 40%
Molecule: His-Yta4(a.a. 33–355) (domain or fragment)

Molecule: Hcp1-Yta4(a.a. 35–355)
- stoichiometry N [3]: 6

- stoichiometry N [4]: 6
Molecule: Hcp1-Msp1(a.a. 36–362) (from UniProt P28737 36-362)

- binding result (GST-Mdv1(a.a. 1–249) [5]): binds
- binding result (GST-Mdv1(a.a. 1–249) [6]): binds
B1: His-Fis1(1–128) (domain or fragment, Schizosaccharomyces pombe, UniProt Q9USZ8 1-128, looked up)
chain: MTEKHTLRLADPSAIDSIISVDEFLQIKEQYDAEQPLITLQTKFNLAWALVRSDSTQHVQQGLSLFCSIYKDSPERRLECLYYIALSHYKLKQYEESRRYLNMLLSKDPNSPEALKLKNRLYDAVTKE
notes: also called His-Fis1(∆TM); Fis1(∆TM); source: E. coli BL21, purified (Ni-NTA, size-exclusion chromatography); not shown: His tag, N-terminal, kept

Molecule: B2
- Km ([7]; 0.5 μM Dnm1 alone, Mg2+): 193.80 µM
- binding result [8]: binds

B3: Dnm1 (Schizosaccharomyces pombe 972h-; G380D) (protein)
chain: MEQLIPLVNQLQDLVYNTIGSDFLDLPSIVVVGSQSCGKSSVLENIVGKDFLPRGTGIVTRRPLILQLINLKRKTKNNHDEESTSDNNSEETSAAGETGSLEGIEEDSDEIEDYAEFLHIPDTKFTDMNKVRAEIENETLRVAGANKGINKLPINLKIYSTRVLNLTLIDLPGLTKIPVGDQPTDIEAQTRSLIMEYISRPNSIILAVSPANFDIVNSEGLKLARSVDPKGKRTIGVLTKLDLMDQGTNAMDILSGRVYPLKLGFVATVNRSQSDIVSHKSMRDALQSERSFFEHHPAYRTIKDRCGTPYLAKTLSNLLVSHIRERLPDIKARLSTLISQTQQQLNNYGDFKLSDQSQRGIILLQAMNRFANTFIASIDDNSSNIPTKELSGGARLYSIFNNVFTTALNSIDPLQNLSTVDIRTAILNSTGSRATLFLSEMAFDILVKPQLNLLAAPCHQCVELVYEELMKICHYSGDSDISHFPKLQTALVETVSDLLRENLTPTYSFVESLIAIQSAYINTNHPDFLGVQGAMAVVLSRKEQNRLMLSQENDEPISSALDTVKPDGIELYSSDPDTSVKSITNKATNEITTLKSDDSAKMQPLDVLASKRYNNAFSTETAERKTFLSYVFGANNATRKAMSIDKSSSYPLNDSLSGGDTNHKNNHPLKMTDLSNEVETMALEDMSEREEVEVDLIKELITSYFNLTRKIIIDQVPKVIMHLLVNASKDAIQNRLVSKLYREDFFDTLLIEDENVKSEREKCERLLSVYNQANKIISTVF
notes: Dnm1 expressed as His-sumo-Dnm1 in E. coli Rosetta; His-sumo tag removed by sumo protease; Ni-NTA and SEC; forms heterogeneous oligomers
- Km ([7]; assembly-defective mutant, 0.5 μM, without Yta4, Mg2+): 85.00 µM

- binding result (Dnm1 [9]): binds
- binding result (Dnm1(G380D)): binds
B4: GST-Mdv1(319–651) (domain or fragment, Schizosaccharomyces pombe, UniProt Q9P7I3 319-651, looked up)
chain: YIVGNLVKQFQAHSEYITSLDFSHPFGTLATASTDKTVKVWDMAGVVYLGSLKGHSDYVSCLAIQDSFIATGSMDTTVRLWNLDNDVLHKDNPVEESLNSPPDQPVDNATNVLTSHTAPVTALALSSDDVLITGADDKTVRQWDIVTGRCIQTLDFVWAETHDTSTSQILVSDTYKQEPFIRALDCLDAAVASGTVDGLIRIWDLRIGLPVRSFIGHTAPISSLQFDSNHLYSGSYDNSVRIWDLRSGSPINIIPMEKKVNSLRLYQGRLAVASDEPNVRIFDTVSNRNWICSIPSHSDSIAAEPNSVPTSVQYKDRFLVDGKSDGSVSVFSA
notes: also called GST-Mdv1(WD); Mdv1(WD); source: E. coli BL21, purified (Glutathione Sepharose 4B resins); not shown: GST, N-terminal, kept
